Source: US9879094B2, “Nucleic acid molecules encoding for BACE1 antibodies” (Genentech, Inc., priority 2010, dated 2018)

Target: BACE1 (Homo sapiens, UniProt P56817)
Test: HTRF BACE1 enzyme activity assay (long peptide Bi27)
Type: biochemical
Conditions: purified affinity matured Fabs
Protocol: The HTRF assay was performed as follows. […] The proteolytic reaction mixture was incubated at ambient temperature for 75 minutes and was quenched by the addition of 5 μL HTRF detection mixture containing 2 nM Streptavidin-D2 and 150 nM of 6E10 anti-amyloid beta antibody (Covance, Emoryville, Calif.) labeled with Europium cryptate in detection buffer (200 mM Tris pH 8.0, 20 mM EDTA, 0.1% BSA, and 0.8M KF). The final reaction mixture was incubated at ambient temperature for 60 minutes and the TR-FRET signal was measured using an EnVision Multilabel Plate Reader™ (Perkin-Elmer) at an excitation wavelength of 320 nm and emission wavelengths of 615 and 665 nm. Reactions lacking BACE1 enzyme (0 BACE) and reactions containing lacking anti-BACE1 antibodies (PBS (100% BACE1 Activity) were used as controls.
Fab proteins of 6 clones were purified and subjected for HTRF enzyme activity assay, as described above.
The affinity matured YW412.8.31 anti-BACE1 antibody was tested in a HTRF assay as described in Example 1. […] Additionally, reactions using a short FRET peptide (Rh-[…]-quencher (SEQ ID NO:54), Invitrogen) were also performed identically to the HTRF reactions. The resulting fluorogenic products from the control reactions were measured as above, but at an excitation wavelength of 545 nm and an emission wavelength of 585 nm. Obtained data were analyzed using GraphPad Prism 5™ (LaJolla, Calif.).

Chain of BACE1 (P56817 22-457): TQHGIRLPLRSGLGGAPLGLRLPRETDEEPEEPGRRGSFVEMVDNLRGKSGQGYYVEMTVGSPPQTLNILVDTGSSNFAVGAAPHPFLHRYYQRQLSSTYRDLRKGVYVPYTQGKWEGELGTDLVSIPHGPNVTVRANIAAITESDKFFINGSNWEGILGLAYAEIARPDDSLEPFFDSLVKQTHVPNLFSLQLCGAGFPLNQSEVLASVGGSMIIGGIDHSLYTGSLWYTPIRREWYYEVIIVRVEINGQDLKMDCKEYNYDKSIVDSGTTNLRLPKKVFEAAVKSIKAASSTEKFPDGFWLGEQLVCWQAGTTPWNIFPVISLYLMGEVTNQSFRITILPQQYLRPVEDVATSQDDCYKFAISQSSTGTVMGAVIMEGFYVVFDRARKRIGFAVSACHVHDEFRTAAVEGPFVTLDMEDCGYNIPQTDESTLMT

B1: LC40 (antibody, V domains shown)
VL: DIQMTQSPSSLSASVGDRVTITCRASQYSYSYSVAWYQQKPGKAPKLLISYASYLYSGVPSRFSGSGSGTDFTLTISSLQPEDFATYYCQQYSYSYSPITFGQGTKVEIK
VH: EISEVQLVESGGGLVQPGGSLRLSCAASGFNVSSSSMHWVRQAPGKGLEWVASIYPYSSSTSYADSVKGRFTISADTSKNTAYLQMNSLRAEDTAVYYCARYSYYSYGIDYWGQGTLVTVSS
  inhibition activity compared to parent Fab: lost its inhibition activity

B2: LC4: affinity matured clone derived from Fab5 (antibody, V domains shown)
VL: DIQMTQSPSSLSASVGDRVTITCRASQSVSSAVAWYQQKPGKAPKLLIYSASSLYSGVPSRFSGSGSGTDFTLTISSLQPEDFATYYCQQYSYSLLTFGQGTKVEIK
VH: EISEVQLVESGGGLVQPGGSLRLSCAASGFNLSYSYIHWVRQAPGKGLEWVASIYSSYGSTYYADSVKGRFTISADTSKNTAYLQMNSLRAEDTAVYYCARSYHHSDKYYYAWSYALDYWGQGTLVTVSS
  inhibition activity compared to parent Fab: significant improved inhibition
